Data from paper PMC6199243 (Scientific Reports, 2018).

Target: T1, a-subunit of recombinant Enterococcus hirae V-ATPase (Enterococcus hirae, UniProt P43439 1-664)
T1 construct: a-subunit of Enterococcus hirae V-ATPase (NtpI); In the map it is represented by a T. thermophilus model (PDB 5GAS) and a homology model of its C-terminal half; also called Eh a-subunit; transmembrane a-subunit; source: E. coli, expressed from pTR19-EhV-ATPase, purified as part of the whole r-EhV-ATPase (Ni-NTA, Superdex 200) in 0.05% DDM
T1 sequence (looked up): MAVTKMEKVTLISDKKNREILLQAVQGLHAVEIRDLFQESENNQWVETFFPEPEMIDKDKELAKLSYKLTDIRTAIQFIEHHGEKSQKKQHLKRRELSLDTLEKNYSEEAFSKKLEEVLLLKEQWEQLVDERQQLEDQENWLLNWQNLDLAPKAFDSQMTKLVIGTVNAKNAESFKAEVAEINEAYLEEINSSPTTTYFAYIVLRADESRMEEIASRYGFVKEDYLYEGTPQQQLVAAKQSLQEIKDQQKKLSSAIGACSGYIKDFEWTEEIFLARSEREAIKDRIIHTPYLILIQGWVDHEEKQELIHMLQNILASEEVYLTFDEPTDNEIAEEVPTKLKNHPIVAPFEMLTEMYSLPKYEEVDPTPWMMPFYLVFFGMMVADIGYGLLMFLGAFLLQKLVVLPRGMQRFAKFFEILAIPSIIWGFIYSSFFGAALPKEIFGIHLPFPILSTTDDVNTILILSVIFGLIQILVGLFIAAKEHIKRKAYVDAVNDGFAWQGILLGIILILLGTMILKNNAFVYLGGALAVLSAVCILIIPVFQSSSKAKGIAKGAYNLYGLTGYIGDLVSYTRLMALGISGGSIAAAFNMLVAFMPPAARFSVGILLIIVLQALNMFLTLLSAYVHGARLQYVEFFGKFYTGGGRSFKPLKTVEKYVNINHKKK
Test: cryo-EM structure; Zernike phase plate single-particle cryo-EM of r-EhV-ATPase in 0.05% DDM, 17.3 Å; earlier atomic models and homology models fitted into the map
Conditions: both partners purified

B1: EG complex (peripheral stalk) of recombinant Enterococcus hirae V-ATPase (complex)
chain 1: MPIDKIITQINETAQLERASFEEMKRKEIDQKFEVKKWQIEADFQKEKASKLEEIERSYRQLRNKQKMQVKQEILNAKQEVLQRLFTEATLQLENEPKEEQLALMKQMIQTLPINGTARLIPGEKSADILTPAVIAEWNEELPFELIREDFTEKAQAGLIIDDAGIQYNFLFSHLIKEIQETMSAEIAKELFD
chain 2: MARILTRIKEAEENNQKKEEQVKAELAQYEQLKNNELIDLNKEFQERLTKLMKEKEKNEEEVTEDEQHKLELILEQFRQKVLEIEKTYLEKEEEEIAKKKNLTNEIIERMKQNNGCH
notes: E-subunit of Enterococcus hirae V-ATPase (NtpE); G-subunit of Enterococcus hirae V-ATPase (NtpF); Two EG peripheral stalks stand in the whole enzyme; The models fitted into the map for EG are of T. thermophilus (PDB 3K5B, 3V6I), not of E. hirae; also called peripheral stalks; source: E. coli, expressed from pTR19-EhV-ATPase, purified as part of the whole r-EhV-ATPase (Ni-NTA, Superdex 200) in …
Does B1 bind?
Result: binds
